Key:
[1] = molecular target: T1, complement C5 (full length) (Homo sapiens, UniProt P01031); assay: filter; among 11 best clones in 500 nM screen; Kd not given; conditions: tags: Quidel / Complement Technologies A120.14 / Advanced Research Technologies
Experimental: (§1) Doped reselection data. Both the normal and high salt selections were enriched after 5 rounds over the naïve pool. At round 5 the pool Kd was approximately 165 nM for the high salt selection and 175 nM for the normal salt selection. The extent of binding was about 20% at the plateau in both. The R4 pools were cloned using TOPO TA cloning kit (Invitrogen, Carlsbad, Calif.), and 48 clones from each pool were sequenced. 12 clones from each pool were transcribed and assayed in a single point dot blot assay at 500 nM C5. Dissociation constants (Kds) were again measured using the dot blot assay previously described. Kds were estimated for the 11 best clones identified in the single point screen, by fitting the data to the equation: fraction RNA bound=amplitude*Kd/(Kd+[C5]). The clones with the three best Kds were SEQ ID NO: 91 (73 nM), SEQ ID NO: 96 (84 nM) and SEQ ID NO: 95 (92 nM). The sequences for these 11 clones are listed below in Table 5.

[2] = molecular target: T1, complement C5 (full length); assay: filter; dot blot, DPBS; conditions: tags: Quidel / Complement Technologies A120.14 / Advanced Research Technologies
Experimental: (§2) The selection progress was monitored using a sandwich filter binding (dot blot) assay. The 5′-³²P-labeled pool RNA (trace concentration) was incubated with C5, 1×DPBS plus 0.1 mg/mL tRNA and 0.1 mg/mL salmon sperm DNA, for 30 minutes at room temperature, and then applied to a nitrocellulose and nylon filter sandwich in a dot blot apparatus (Schleicher and Schuell). The percentage of pool RNA bound to the nitrocellulose was calculated and monitored approximately every 3 rounds with a single point screen (+/−300 nM C5). Pool Kd measurements were measured using a titration of protein and the dot blot apparatus as described above.
as §1, with “Kds were estimated for the 11 best clones identified in the single point screen, by fitting the data to the equation: fraction RNA bound=amplitude*Kd/(Kd+[C5]). The clones with the three best Kds were SEQ ID NO: 91 (73 nM), SEQ ID NO: 96 (84 nM) and SEQ ID NO: 95 (92 nM). The sequences for these 11 clones are listed below in Table 5.” left out

[3] = molecular target: T1, complement C5 (full length); assay: filter; dot blot; 20% plateau; listing entry for SEQ 81 differs in length, printed sequence used; conditions: tags: Quidel / Complement Technologies A120.14 / Advanced Research Technologies
Experimental: as §2
(§3) Six constructs based on ARC913 (SEQ ID NO: 75) were transcribed, gel purified, and tested in dot blots for binding to C5.

[4] = molecular target: T1, complement C5 (full length); assay: filter; dot blot, no binding; conditions: tags: Quidel / Complement Technologies A120.14 / Advanced Research Technologies
[5] = molecular target: complement C5 in human serum/blood (Homo sapiens, UniProt P01031); assay: inhibition; CH50 hemolysis, 0.2% human serum, 37 C; conditions: protein: extract; label: 5'-32P; stem-loop
complement C5 in human serum/blood, sequence (P01031 whole entry): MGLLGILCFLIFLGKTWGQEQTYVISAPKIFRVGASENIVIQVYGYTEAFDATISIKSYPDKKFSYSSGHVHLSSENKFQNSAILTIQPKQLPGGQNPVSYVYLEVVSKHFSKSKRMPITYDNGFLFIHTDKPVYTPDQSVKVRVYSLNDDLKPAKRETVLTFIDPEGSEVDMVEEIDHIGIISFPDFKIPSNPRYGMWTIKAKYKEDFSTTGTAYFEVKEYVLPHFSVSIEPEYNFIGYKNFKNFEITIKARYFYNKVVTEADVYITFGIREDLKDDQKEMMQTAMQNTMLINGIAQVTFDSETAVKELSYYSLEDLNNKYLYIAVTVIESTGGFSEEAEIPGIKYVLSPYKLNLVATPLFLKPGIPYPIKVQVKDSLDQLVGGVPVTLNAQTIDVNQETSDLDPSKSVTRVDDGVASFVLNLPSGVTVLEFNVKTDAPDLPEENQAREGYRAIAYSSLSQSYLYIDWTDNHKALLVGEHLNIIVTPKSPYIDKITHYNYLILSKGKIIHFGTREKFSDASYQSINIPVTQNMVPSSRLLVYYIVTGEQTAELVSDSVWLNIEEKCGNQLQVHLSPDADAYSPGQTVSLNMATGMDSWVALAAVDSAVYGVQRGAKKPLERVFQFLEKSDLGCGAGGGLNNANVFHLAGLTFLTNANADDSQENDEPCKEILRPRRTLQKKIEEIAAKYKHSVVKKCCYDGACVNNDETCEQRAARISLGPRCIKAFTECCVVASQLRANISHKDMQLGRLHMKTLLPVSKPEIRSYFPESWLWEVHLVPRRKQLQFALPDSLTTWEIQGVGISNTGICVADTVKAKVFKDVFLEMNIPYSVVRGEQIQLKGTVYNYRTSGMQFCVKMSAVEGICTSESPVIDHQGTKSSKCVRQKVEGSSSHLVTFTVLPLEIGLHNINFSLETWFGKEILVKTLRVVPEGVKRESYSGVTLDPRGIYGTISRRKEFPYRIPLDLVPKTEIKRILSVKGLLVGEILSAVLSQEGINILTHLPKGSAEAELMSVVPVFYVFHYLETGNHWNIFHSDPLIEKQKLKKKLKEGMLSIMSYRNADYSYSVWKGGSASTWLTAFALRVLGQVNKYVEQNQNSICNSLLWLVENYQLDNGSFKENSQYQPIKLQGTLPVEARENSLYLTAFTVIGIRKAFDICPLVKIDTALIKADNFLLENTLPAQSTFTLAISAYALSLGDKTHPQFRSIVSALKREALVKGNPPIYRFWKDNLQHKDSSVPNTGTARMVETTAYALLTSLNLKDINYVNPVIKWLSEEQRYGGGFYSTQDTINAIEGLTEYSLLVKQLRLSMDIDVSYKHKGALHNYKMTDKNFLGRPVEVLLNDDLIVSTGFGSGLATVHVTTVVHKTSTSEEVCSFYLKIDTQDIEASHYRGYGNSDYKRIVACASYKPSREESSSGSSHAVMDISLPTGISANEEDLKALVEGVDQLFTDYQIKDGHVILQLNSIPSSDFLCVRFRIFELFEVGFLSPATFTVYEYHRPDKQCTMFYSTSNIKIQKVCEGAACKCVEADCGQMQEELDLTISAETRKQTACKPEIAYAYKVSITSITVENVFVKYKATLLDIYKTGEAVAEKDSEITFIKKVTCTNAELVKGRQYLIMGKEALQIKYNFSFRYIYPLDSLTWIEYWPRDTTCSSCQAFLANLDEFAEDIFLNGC
Excerpt: The CH50 test measures the ability of the complement system in a serum test sample to lyse 50% of cells in a standardized suspension of antibody-coated sheep erythrocytes. A solution of 0.2% human serum was mixed with antibody-coated sheep erythrocytes (Diamedix EZ Complement CH50 Kit, Diamedix Corp., Miami, Fla.) in the presence or absence of various anti-C5 aptamers. The assay was run according to the kit protocol in veronal-buffered saline containing calcium, magnesium and 1% gelatin (GVB⁺⁺ complement buffer) and incubated for 30 minutes at 37° C. After incubation, the samples were centrifuged to pellet intact erythrocytes. The optical density at 412 nm (OD₄₁₂) of the supernatant was read to quantify the release of soluble hemoglobin, which is proportional to the extent of hemolysis (Green et al., (1995) Chem. Biol. 2:683-95). To verify that the aptamers blocked C5 activation, some hemolysis supernatants were analyzed for the presence of C5a and C5b-9 by ELISA (C5b-9 ELISA kit, Quidel, San Diego, Calif.; C5a ELISA kit, BD Biosciences, San Diego, Calif.) following the ELISA kit protocols.

[6] = molecular target: C5a des Arg (Homo sapiens, UniProt P01031 P01031:678-750); assay: filter; printed >>3 uM; PBS, 1 mM MgCl2, BSA, tRNA, 25 or 37 C; conditions: tags: Complement Technologies A145.6; label: 5'-32P; stem-loop
C5a des Arg, sequence (P01031 678-750, one chain of several): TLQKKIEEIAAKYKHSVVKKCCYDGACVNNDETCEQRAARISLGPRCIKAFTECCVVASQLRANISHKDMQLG
Experimental: (§4) The specificity of ARC186 (SEQ ID NO: 4) for C5 was also assessed in nitrocellulose filtration assays by comparison with complement components both upstream and downstream from C5 in the complement cascade. Purified human proteins and protein complexes were purchased from Complement Technologies (Iyler, Tex.) including: C1q (cat. # A099.18; 2.3 μM), C3 (cat. # A113c.8; 27 μM, C5 (cat. # A120.14; 5.4 μM), C5a des Arg (cat. # A145.6; 60 μM), sC5b-9 (cat. # A127.6; 1 μM), factor B (cat. # A135.12; 11 μM) and factor H (cat #A137.13P; 6.8 μM). Binding reactions were established by performing serial dilutions of protein in PBS plus 1 mM MgCl₂, 0.02 mg (mL BSA and 0.002 mg/mL tRNA, incubating for 14 hours at 25° C. or 37° C., and then applied to the nitrocellulose filtration apparatus as described above. Dissociation constants KD were determined from semi-log plots of % nitrocellulose binding versus [C5] by a fit of the data to the equation: % nitrocellulose binding=amplitude×[C5]/(KD+[C5]).

[7] = molecular target: sC5b-9 complex (Homo sapiens, UniProt P01031;P01031;P13671;P10643;P07357;P07358;P07360;P02748;P04004 …); assay: filter; PBS, 1 mM MgCl2, BSA, tRNA, 25 or 37 C; conditions: tags: Complement Technologies A127.6; label: 5'-32P; stem-loop
Experimental: as §4

[8] = molecular target: complement C1q (Homo sapiens, UniProt P02745;P02746;P02747 P02745:23-245,P02746:28-253,P02747:29-245); assay: filter; PBS, 1 mM MgCl2, BSA, tRNA; conditions: tags: Complement Technologies A099.18; chain copies: 6; label: 5'-32P; stem-loop
complement C1q, sequence (P02745 23-245, chain 1 of 3): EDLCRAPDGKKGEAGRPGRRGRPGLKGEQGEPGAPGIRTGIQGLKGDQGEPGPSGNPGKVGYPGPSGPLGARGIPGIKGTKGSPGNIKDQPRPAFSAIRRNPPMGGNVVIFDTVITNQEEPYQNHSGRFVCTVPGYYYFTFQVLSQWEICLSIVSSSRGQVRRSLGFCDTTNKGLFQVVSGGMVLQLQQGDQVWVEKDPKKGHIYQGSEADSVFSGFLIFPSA
complement C1q, sequence (P02746 28-253, chain 2 of 3): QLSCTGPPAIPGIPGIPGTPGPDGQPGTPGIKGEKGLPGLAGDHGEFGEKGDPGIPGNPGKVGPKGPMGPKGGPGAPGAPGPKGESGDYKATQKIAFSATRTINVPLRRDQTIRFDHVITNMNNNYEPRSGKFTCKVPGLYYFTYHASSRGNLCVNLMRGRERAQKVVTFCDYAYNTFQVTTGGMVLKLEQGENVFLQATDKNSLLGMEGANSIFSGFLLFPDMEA
complement C1q, sequence (P02747 29-245, chain 3 of 3): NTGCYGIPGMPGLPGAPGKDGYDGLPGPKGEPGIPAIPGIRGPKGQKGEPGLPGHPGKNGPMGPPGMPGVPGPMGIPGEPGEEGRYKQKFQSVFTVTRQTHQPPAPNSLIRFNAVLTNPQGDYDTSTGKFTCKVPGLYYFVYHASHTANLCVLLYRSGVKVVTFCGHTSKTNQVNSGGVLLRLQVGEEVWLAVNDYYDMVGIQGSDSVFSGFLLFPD
Experimental: as §4

[9] = molecular target: complement C3 (Homo sapiens, UniProt P01024;P01024 P01024:23-667,P01024:672-1663); assay: filter; non-activated C3 essentially does not bind; conditions: tags: Complement Technologies A113c.8; label: 5'-32P; stem-loop
complement C3, sequence (P01024 23-667, chain 1 of 2): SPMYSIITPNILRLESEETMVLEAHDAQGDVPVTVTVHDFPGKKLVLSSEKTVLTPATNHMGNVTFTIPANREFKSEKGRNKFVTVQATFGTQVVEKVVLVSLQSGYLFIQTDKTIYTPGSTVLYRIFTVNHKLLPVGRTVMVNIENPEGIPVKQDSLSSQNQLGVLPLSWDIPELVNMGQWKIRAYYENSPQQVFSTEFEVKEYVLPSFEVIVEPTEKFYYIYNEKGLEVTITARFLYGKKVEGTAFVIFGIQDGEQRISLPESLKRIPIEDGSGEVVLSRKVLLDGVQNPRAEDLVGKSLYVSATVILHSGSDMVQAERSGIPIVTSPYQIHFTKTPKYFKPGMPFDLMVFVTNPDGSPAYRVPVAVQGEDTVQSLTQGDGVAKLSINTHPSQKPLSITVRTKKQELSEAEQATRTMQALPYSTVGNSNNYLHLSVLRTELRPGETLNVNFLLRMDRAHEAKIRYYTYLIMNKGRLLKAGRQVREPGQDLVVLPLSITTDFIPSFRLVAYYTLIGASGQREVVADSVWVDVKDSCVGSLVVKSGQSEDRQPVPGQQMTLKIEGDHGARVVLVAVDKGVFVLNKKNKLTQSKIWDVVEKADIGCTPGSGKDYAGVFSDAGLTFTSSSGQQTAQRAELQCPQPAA
complement C3, sequence (P01024 672-1663, chain 2 of 2): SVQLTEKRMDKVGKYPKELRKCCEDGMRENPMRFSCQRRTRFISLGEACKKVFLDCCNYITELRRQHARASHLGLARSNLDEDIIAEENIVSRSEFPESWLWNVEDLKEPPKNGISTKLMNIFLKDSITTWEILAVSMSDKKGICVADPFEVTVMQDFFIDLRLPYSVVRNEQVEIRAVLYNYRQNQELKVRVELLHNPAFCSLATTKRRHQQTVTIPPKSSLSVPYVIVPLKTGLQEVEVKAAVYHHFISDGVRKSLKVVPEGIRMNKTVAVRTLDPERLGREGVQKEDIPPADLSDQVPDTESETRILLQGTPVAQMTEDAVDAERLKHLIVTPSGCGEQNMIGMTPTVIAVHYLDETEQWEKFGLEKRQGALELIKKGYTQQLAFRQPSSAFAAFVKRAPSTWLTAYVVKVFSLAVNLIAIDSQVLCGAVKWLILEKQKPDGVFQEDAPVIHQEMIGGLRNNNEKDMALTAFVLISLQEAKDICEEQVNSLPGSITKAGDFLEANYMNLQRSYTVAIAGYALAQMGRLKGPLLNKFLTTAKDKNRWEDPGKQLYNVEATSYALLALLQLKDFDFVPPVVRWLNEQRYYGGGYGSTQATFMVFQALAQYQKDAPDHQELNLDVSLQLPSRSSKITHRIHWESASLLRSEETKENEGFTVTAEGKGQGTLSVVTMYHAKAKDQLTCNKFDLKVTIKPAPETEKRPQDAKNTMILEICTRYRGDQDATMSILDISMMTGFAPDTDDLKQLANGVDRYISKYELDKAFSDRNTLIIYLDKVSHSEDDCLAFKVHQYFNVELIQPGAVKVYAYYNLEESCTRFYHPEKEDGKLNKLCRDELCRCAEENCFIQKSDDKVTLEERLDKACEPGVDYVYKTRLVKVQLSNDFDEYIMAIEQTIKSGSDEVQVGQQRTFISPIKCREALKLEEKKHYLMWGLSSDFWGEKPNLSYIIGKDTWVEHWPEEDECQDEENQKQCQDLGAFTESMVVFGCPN
Experimental: as §4

[10] = molecular target: T1, complement C5 (full length); assay: filter; PBS, 1 mM MgCl2, 23 C, 4 h; 0.6 nM at 37 C; kinetic estimate 0.07 nM (koff 0.013 /min, kon 0.18 /nM/min); conditions: tags: Quidel / Complement Technologies A120.14 / Advanced Research Technologies; label: 5'-32P; stem-loop
Experimental: The binding reactions were analyzed by nitrocellulose filtration using a Minifold I dot-blot, 96-well vacuum filtration manifold (Schleicher & Schuell, Keene, N.H.). A three-layer filtration medium was used, consisting (from top to bottom) of Protran nitrocellolose (Schleicher & Schuell), Hybond-P nylon (Amersham Biosciences, Piscataway, N.J.) and GB002 gel blot paper (Schleicher & Schuell). The nitrocellulose layer, which selectively binds protein over nucleic acid, preferentially retained the anti-C5 aptamer in complex with a protein ligand, while non-complexed anti-C5 aptamer passed through the nitrocellulose and adhered to the nylon. The gel blot paper was included simply as a supporting medium for the other filters. Following filtration, the filter layers were separated, dried and exposed on a phosphor screen (Amersham Biosciences) and quantified using a Storm 860 Phosphorimager® blot imaging system (Amersham Biosciences).
To analyze the association reaction, the equilibration rate constant (keq) for the formation of C5·ARC186 was measured in the presence of varying concentrations of C5 protein (1-5 nM). Complex formation was initiated by mixing together C5 protein and radiolabeled ARC186 in PBS containing 1 mM MgCl₂ at room temperature (23° C.), and stopped by nitrocellulose filtration partitioning. […]

[11] = molecular target: T1, complement C5 (full length); assay: filter; dot blot; conditions: tags: Quidel / Complement Technologies A120.14 / Advanced Research Technologies
Experimental: as §2, §3

T1 sequence (P01031 whole entry): as the sequence (P01031 whole entry) above

B1: doped clone SEQ 97 (mixed)
RNA: GGGAGAGGAGAGAACGUUCUACCUUUCUCUGCCACAAGCAUACCUUCGCGGGGUUCUAUUGGUUACGACUAGCAUCGAUG
modifications: dRmY: A,G deoxy; C,U 2'-OMe
[1]
  binding result: binds

B2: doped clone SEQ 92 (mixed)
RNA: GGGAGAGGAGAGAACGUUCUACCUUGGUUUGGCGCAGGCAUACAUACGCAGGUCGAUCGGUUACGACUAGCAUCGAUG
modifications: dRmY: A,G deoxy; C,U 2'-OMe
[1]
  binding result: binds

B3: doped clone SEQ 98 (mixed)
RNA: GGGAGAGGAGAGAACGUUCUACCUUGGUUUGGCACAGGCAUAUAUACGCAGGGUCGAUCCGUUACGACUAGCAUCGAUG
modifications: dRmY: A,G deoxy; C,U 2'-OMe
[1]
  binding result: binds

B4: doped clone SEQ 95 (mixed)
RNA: GGGAGAGGAGAGAACGUUCUACCUUAGGUUCGCACUGUCAUACAUACACACGGGCAAUCGGUUACGACUAGCAUCGAUG
modifications: dRmY: A,G deoxy; C,U 2'-OMe
[2]
  Kd: 92 nM

B5: ARC954 (mixed)
RNA: CGUUCUACCUUGGUUUGGCACAGGCAUACAUACGCAGGGGUCGAUCG
modifications: dRmY: A,G deoxy; C,U 2'-OMe
[3]
  Kd: 130 nM

B6: ARC878 (mixed)
RNA: GGCGGCACAGGCAUACAUACGCAGGGGUCGCC
modifications: dRmY: A,G deoxy; C,U 2'-OMe
[4]
  binding result: no binding

B7: doped clone SEQ 88 (mixed)
RNA: GGGAGAGGAGAGAACGUUCUACCUUGGUUUGGCACAGGCAUACAUACGCAGGGGUCGAUCGGUUACGACUAGCAUCGAUG
modifications: dRmY: A,G deoxy; C,U 2'-OMe
[1]
  binding result: binds

B8: doped clone SEQ 91 (mixed)
RNA: GGGAGAGGAGAGAACGUUCUACCUUGGUUUGGCCCAGGCAUAUAUACGCAGGGAUUGAUCCGUUACGACUAGCAUCGAUG
modifications: dRmY: A,G deoxy; C,U 2'-OMe
[2]
  Kd: 73 nM

B9: doped clone SEQ 93 (mixed)
RNA: GGGAGAGGAGAGAACGUUCUACCUUGUUGUGGCACAGCCAACCCUACGCACGGAUCGCCCGGUUACGACUAGCAUCGAUG
modifications: dRmY: A,G deoxy; C,U 2'-OMe
[1]
  binding result: binds

B10: doped clone SEQ 89 (mixed)
RNA: GGGAGAGGAGAGAACGUUCUACCUUGGUUUGGCACAGGCAUACAUACGCAGGUGUCGAUCUGUUACGACUAGCAUCGAUG
modifications: dRmY: A,G deoxy; C,U 2'-OMe
[1]
  binding result: binds

B11: doped clone SEQ 90 (mixed)
RNA: GGGAGAGGAGAGAACGUUCUACCUUGGUUUGGCACAGGCAUAAAUACGCAGGGCUCGAUCGGUUACGACUAGCAUCGAUG
modifications: dRmY: A,G deoxy; C,U 2'-OMe
[1]
  binding result: binds

B12: doped clone SEQ 94 (mixed)
RNA: GGGAGAGGAGAGAACGUUCUACCUUGGUUUGGCACAGGCAUACAUACGCAGGUCGAUCGGUUACGACUA
modifications: dRmY: A,G deoxy; C,U 2'-OMe
[1]
  binding result: binds

B13: ARC876 (mixed)
RNA: GGGUUUGGCACAGGCAUACAUACCC
modifications: dRmY: A,G deoxy; C,U 2'-OMe
[4]
  binding result: no binding

B14: ARC186 (ssRNA)
RNA: CGCCGCGGUCUCAGGCGCUGAGUCUGAGUUUACCUGCG
modifications: 2'-F all C and U; 2'-OMe purines except three 2'-OH purines; 3' inverted dT
[5]
  IC50: 0.5 nM
[6]
  Kd: > 3000 nM
[7]
  Kd: > 200 nM
[8]
  Kd: > 300 nM
[9]
  binding result: no binding
[10]
  Kd: 0.08 nM

B15: ARC877 (mixed)
RNA: GGGUUUGGCACAGGCAUACAAACCC
modifications: dRmY: A,G deoxy; C,U 2'-OMe
[4]
  binding result: no binding

B16: ARC874 (mixed)
RNA: CCUUGGUUUGGCACAGGCAUACAUACGCAGGG
modifications: dRmY: A,G deoxy; C,U 2'-OMe
[11]
  Kd: 1000 nM

B17: ARC875 (mixed)
RNA: CCUUGGUUUGGCACAGGCAUACAAACGCAGGG
modifications: dRmY: A,G deoxy; C,U 2'-OMe
[4]
  binding result: no binding

Reference: patent US20090269356, “Complement Binding Aptamers and Anti-C5 Agents Useful in the Treatment of Ocular Disorders” (published 2009)
